Measured values from PMC4036818.
Read-outs that look alike come from different tables or passages of the source.

Columns and labels:
[1] = biological target: native SARS-CoV 3CLpro (3C-like protease, nsp5) with an n-terminal methionine (SARS-CoV (Urbani strain)) (UniProt P0C6X7); experiment: enzyme activity against enzyme concentration
[2] = biological target: native SARS-CoV 3CLpro (3C-like protease, nsp5) with an n-terminal methionine (SARS-CoV (Urbani strain)) (UniProt P0C6X7); experiment: enzyme activity against enzyme concentration; remark: listed apart in the source

## native SARS-CoV 3CLpro (3C-like protease, nsp5) with an n-terminal methionine (from UniProt P0C6X7 3241-3544) (enzyme)
[1]
  Kd: 250 to 1000 nM
[2]
  Kd: 230 nM
